Source: US20240000938A1 (A2 BIOTHERAPEUTICS, published 2024)

Columns and labels:
[1] = biological target: HLA-A*02 / HA-1(H) peptide … on T2 cells (human); assay: cell-based or functional assay
HLA-A*02 on cells = HLA-A*02 on cells (human); assay: cell-based or functional assay

Binder	Emax shifted downward (KRAS TCR) [1]	Emax shifted downward (NY-ESO-1 TCR) [1]	additional right shift in activity of the NY-ESO-1 TCR [1]	block of KRAS TCR activity [1]	EC50 right shift of the NY-ESO-1 TCR (HLA-A*02 on cells)
HA-1 Ftcr blocker (TCR, V domains shown) V domain 1: KNEVEQSPQNLTAQEGEFITINCSYSVGISALHWLQQHPGGGIVSLFMLSSGKKKHGRLIATINIQEKHSSLHITASHPRDSAVYICAVRSVSGAGSYQLTFGKGTKLSVIP V domain 2: DTGVSQNPRHKITKRGQNVTFRCDPISEHNRLYWYRQTLGQGPEFLTYFQNEAQLEKSRLLSDRFSAERPKGSFSTLEIQRTEQGDSAMYLCASSIDSFNEQFFGPGTRLTVLE	2.7 fold	1.5 fold	~10 fold	~5 fold	
VLHDDLLEA [HA-1(H) peptide VLHDDLLEA]					~30 fold
